Experimental data: patent US20040048327A1 (GEORGIA TECH RESEARCH, published 2004)
Where two headings read alike, the source gives them in different places. Numbered stars: 1 amine (or outer) side, 2 acyl side, 3 side chain; on linkers, the order of the positions; unused ones are H or OH. Square brackets hold non-standard residues; d marks the D form. * marks the point of attachment. AAsn = aza-asparagine, NC(=O)CN(N[*:1])C(=O)[*:2]; AAsp = aza-Asp, O=C(N(CC(=O)[*:3])N[*:1])[*:2]; azaAsp = O=C(N(CC(=O)[*:3])N[*:1])[*:2]; PhPr = N-terminal cap as named (PhPr); azaAsn = NC(=O)CN(N[*:1])C(=O)[*:2]; (S,S)‑EP = not defined here; trans‑EP = not defined here; Cbz = O=C(OCc1ccccc1)*

Assays:
Experiment in all cases: cell-based or functional assay
caspase-6 = target: T1, caspase-6 (UniProt P55212 24-293, limits assumed)
T1 sequence (looked up): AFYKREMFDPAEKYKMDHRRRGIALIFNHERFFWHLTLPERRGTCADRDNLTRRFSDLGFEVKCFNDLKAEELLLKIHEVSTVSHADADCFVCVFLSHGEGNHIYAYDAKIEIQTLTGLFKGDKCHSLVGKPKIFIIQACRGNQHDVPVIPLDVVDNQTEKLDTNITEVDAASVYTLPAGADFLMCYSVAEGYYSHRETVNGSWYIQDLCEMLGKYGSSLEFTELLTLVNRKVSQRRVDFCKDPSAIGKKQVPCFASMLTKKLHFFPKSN

[1] = target: T2, autolytically stable caspase-1 variant (D381 E) (UniProt P29466 120-404, limits assumed)
T2 sequence (looked up): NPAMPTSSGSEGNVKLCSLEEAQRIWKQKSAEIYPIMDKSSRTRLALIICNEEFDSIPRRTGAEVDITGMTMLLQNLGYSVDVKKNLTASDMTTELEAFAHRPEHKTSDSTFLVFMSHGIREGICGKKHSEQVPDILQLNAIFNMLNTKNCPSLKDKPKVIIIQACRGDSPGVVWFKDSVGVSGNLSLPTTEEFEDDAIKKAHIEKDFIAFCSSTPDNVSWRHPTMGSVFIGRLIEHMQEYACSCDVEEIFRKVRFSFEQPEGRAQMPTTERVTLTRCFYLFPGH

caspase-3 [2] = target: T3, caspase-3 (UniProt P42574 29-277, limits assumed)
T3 sequence (looked up): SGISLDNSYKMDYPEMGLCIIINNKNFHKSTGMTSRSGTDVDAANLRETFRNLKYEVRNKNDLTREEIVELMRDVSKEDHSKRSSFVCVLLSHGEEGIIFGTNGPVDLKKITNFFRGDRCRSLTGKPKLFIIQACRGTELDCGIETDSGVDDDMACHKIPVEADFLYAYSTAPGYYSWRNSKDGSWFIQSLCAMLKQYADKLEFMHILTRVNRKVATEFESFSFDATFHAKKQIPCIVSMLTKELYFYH

[3] = target: T4, schistosome legumain SmAE (Schistosoma mansoni asparaginyl endopeptidase) (Schistosoma mansoni, UniProt P09841 32-291)
T4 sequence (looked up): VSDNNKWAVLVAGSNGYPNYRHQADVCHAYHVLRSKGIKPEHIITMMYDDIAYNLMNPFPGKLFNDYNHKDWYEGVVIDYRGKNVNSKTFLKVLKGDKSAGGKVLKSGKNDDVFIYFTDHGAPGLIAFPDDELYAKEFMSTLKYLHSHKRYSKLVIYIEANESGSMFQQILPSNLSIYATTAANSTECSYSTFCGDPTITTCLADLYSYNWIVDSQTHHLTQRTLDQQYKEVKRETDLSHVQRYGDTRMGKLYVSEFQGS

[4] = target: T2, autolytically stable caspase-1 variant …; remark: listed apart in the source
caspase-3 [5] = target: T3, caspase-3; remark: listed apart in the source
human cathepsin D = human cathepsin D (human, UniProt P07339 65-412)
porcine pepsin = porcine pepsin (porcine, UniProt P00791 60-385)
[6] = target: plasmepsin 2 (from P. falciparum) (P. falciparum, UniProt P46925 125-453, limits assumed)
[7] = target: secreted aspartic proteinase 2 (SAP-2) from Candida albicans (Candida albicans)
HIV-1 protease = HIV-1 protease (HIV-1)

porcine pepsin, sequence (P00791 60-385 limits assumed): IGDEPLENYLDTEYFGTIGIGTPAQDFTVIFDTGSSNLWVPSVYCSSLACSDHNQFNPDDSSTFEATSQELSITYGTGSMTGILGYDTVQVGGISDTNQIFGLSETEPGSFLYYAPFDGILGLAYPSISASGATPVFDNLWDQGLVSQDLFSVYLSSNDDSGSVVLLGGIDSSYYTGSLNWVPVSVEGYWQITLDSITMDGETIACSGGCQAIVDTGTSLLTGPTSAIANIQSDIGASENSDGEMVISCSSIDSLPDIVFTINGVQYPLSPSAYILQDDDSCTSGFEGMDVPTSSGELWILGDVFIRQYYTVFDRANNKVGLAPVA
plasmepsin 2 (from P. falciparum), sequence (P46925 125-453 limits assumed): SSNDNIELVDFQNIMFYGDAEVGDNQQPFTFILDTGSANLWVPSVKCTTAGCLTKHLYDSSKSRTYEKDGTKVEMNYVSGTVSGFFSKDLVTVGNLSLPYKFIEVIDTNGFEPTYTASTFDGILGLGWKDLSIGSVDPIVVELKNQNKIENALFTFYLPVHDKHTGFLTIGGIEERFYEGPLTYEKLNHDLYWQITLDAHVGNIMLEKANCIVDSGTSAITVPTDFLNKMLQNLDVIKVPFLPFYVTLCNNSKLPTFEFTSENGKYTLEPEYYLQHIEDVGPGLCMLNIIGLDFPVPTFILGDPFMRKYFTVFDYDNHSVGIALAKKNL
human cathepsin D, sequence (P07339 65-412 limits assumed): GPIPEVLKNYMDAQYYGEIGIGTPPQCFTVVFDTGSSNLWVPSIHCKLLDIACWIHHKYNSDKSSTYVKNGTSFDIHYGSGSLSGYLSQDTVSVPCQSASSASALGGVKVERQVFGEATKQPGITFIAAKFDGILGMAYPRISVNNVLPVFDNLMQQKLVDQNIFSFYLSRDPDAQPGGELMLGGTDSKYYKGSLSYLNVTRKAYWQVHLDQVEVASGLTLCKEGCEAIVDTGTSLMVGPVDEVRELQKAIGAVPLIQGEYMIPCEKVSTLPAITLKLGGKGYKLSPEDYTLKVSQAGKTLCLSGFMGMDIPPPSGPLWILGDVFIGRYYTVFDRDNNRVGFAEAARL

Binder | k2 (caspase-6) | k2 (caspase-3 [2]) | IC50 [3] | other results
PhPr-Val-Ala-[AAsp]-{(2S,3S)‑EP‑CON(CH2CH2CH2CH3)2} [PhPr-Val-Ala-AAsp-(2S,3S)-EP-CON(CH2CH2CH2CH3)2] | 53 M⁻¹ s⁻¹ | 520 M⁻¹ s⁻¹ | – | k2 [1]: 26200 M⁻¹ s⁻¹
Cbz-Ala-Ala-[AAsn]-{trans‑EP-CH2CH2Ph} (reading uncertain; also: printed as Cbz-Ala-Ala-AAsn-(trans)-EP-CH2CH2Ph) [Cbz-Ala-Ala-AAsn-(trans)-EP-CH2CH2Ph] | – | – | 70 nM | –
Cbz-Ala-Ala-[AAsn]-{(S,S)‑EP-CON(nBu)2} (reading uncertain; also: printed as Cbz-Ala-Ala-AAsn-(S, S)-EP-CON(nBu)2) [Cbz-Ala-Ala-AAsn-(S, S)-EP-CON(nBu)2] | – | – | 68 nM | –
Cbz-Ala-Ala-[azaAsn]-{(2R,3R)‑EP‑COOEt} [Cbz-Ala-Ala-AAsn-(2R, 3R)-EP-COOEt] | – | – | 788 nM | –
PhPr-Val-Ala-[AAsp]-{(2S,3S)‑EP‑CON(CH3)CH2Ph} [PhPr-Val-Ala-AAsp-(2S,3S)-EP-CON(CH3)CH2Ph] | 136 M⁻¹ s⁻¹ | 1950 M⁻¹ s⁻¹ | – | –
Cbz-Ala-Ala-[AAsn]-{trans‑EP-Ph‑4‑Cl} (reading uncertain; also: printed as Cbz-Ala-Ala-AAsn-(trans)-EP-Ph-4-Cl) [Cbz-Ala-Ala-AAsn-(trans)-EP-Ph-4-Cl] | – | – | 90 nM | –
Cbz-IET[azaAsp]-{(2S,3S)‑EP‑CON(CH2Ph)2} [Cbz-Ile-Glu-Thr-AAsp-(2S,3S)-EP-CON(CH2Ph)2] | 32000 M⁻¹ s⁻¹ | 3550 M⁻¹ s⁻¹ | – | –
Cbz-Ala-Ala-[AAsn]-{(S,S)‑EP-COOCH2CH2Ph} (reading uncertain; also: printed as Cbz-Ala-Ala-AAsn-(S, S)-EP-COOCH2CH2Ph) [Cbz-Ala-Ala-AAsn-(S, S)-EP-COOCH2CH2Ph] | – | – | 45 nM | –
Cbz-IET[azaAsp]-{(R,R)‑EP‑CONHCH2Ph} [Cbz-Ile-Glu-Thr-AAsp-(R, R)-EP-CONHCH2Ph] | – | – | – | k2 [4]: 18100 M⁻¹ s⁻¹; k2 (caspase-3 [5]): 6480 M⁻¹ s⁻¹
Cbz-Ala-Ala-[azaAsn]-{(2S,3S)‑EP‑COOEt} [Cbz-Ala-Ala-AAsn-(2S, 3S)-EP-COOEt] | – | – | 53 nM | inhibition of substrate hydrolysis (human cathepsin D): < 20 % inhibition; inhibition of substrate hydrolysis (porcine pepsin): < 20 % inhibition; inhibition of substrate hydrolysis [6]: < 20 % inhibition; inhibition of substrate hydrolysis [7]: < 20 % inhibition; inhibition of substrate hydrolysis (HIV-1 protease): < 20 % inhibition
Cbz-Ala-Ala-[AAsn]-{(S,S)‑EP-CON(CH3)CH2Ph} (reading uncertain; also: printed as Cbz-Ala-Ala-AAsn-(S, S)-EP-CON(CH3)CH2Ph) [Cbz-Ala-Ala-AAsn-(S, S)-EP-CON(CH3)CH2Ph] | – | – | 63 nM | –
Cbz-IET[azaAsp]-{(2S,3S)‑EP‑CON(CH3)CH2Ph} [Cbz-Ile-Glu-Thr-AAsp-(2S,3S)-EP-CON(CH3)CH2Ph] | 47700 M⁻¹ s⁻¹ | 4780 M⁻¹ s⁻¹ | – | –
PhPr-Val-Ala-[AAsp]-{(2S,3S)‑EP‑CON(CH2Ph)2} [PhPr-Val-Ala-AAsp-(2S,3S)-EP-CON(CH2Ph)2] | 145 M⁻¹ s⁻¹ | 830 M⁻¹ s⁻¹ | – | k2 [1]: 101000 M⁻¹ s⁻¹
Cbz-Ala-Ala-[AAsn]-{(S,S)‑EP-COOCH2Ph} (reading uncertain; also: printed as Cbz-Ala-Ala-AAsn-(S, S)-EP-COOCH2Ph) [Cbz-Ala-Ala-AAsn-(S, S)-EP-COOCH2Ph] | – | – | 47 nM | –
